T1: ITGA2 protein on the surface of human tumor cells (human, UniProt P17301 30-1181)
T1 construct: whole, on cells; Endogenously expressed; the cell line is named under assay or readout; also called Integrin alpha-2; ITGA2-positive HuCCT1 cells
T1 sequence (looked up): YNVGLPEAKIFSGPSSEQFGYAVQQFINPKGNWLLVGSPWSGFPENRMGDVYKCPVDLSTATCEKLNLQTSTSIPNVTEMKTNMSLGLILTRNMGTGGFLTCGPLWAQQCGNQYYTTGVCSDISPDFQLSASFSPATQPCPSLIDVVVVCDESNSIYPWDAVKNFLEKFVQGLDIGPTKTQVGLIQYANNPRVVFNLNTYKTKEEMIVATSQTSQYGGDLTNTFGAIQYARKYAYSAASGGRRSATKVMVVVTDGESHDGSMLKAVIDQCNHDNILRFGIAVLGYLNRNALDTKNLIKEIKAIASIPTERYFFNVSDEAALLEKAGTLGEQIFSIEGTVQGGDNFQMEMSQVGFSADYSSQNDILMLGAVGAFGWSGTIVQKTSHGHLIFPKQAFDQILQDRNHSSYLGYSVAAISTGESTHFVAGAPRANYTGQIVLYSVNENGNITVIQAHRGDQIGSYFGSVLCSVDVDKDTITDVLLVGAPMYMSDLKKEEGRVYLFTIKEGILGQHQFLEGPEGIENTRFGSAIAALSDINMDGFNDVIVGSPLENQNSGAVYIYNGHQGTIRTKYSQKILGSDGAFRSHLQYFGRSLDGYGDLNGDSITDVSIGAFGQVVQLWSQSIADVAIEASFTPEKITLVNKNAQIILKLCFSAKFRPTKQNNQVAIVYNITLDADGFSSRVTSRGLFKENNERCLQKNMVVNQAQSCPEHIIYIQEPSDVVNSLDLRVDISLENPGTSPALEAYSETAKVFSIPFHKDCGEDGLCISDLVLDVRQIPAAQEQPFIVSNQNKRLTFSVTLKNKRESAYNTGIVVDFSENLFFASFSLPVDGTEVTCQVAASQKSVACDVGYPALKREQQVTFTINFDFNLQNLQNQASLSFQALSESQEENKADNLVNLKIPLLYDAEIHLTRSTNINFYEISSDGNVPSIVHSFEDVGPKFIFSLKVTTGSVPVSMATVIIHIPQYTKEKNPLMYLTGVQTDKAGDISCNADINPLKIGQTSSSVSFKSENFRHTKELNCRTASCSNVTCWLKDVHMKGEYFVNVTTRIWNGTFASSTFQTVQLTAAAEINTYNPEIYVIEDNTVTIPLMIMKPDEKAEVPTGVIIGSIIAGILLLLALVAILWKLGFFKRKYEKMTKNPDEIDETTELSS

T2: ITGA2-His (UniProt P17301 30-1132, limits assumed)
T2 construct: Coated on the ELISA plate at 2 ug/mL; whole entry P17301 is named; also called ITGA2 protein; not shown: His tag
T2 sequence (looked up): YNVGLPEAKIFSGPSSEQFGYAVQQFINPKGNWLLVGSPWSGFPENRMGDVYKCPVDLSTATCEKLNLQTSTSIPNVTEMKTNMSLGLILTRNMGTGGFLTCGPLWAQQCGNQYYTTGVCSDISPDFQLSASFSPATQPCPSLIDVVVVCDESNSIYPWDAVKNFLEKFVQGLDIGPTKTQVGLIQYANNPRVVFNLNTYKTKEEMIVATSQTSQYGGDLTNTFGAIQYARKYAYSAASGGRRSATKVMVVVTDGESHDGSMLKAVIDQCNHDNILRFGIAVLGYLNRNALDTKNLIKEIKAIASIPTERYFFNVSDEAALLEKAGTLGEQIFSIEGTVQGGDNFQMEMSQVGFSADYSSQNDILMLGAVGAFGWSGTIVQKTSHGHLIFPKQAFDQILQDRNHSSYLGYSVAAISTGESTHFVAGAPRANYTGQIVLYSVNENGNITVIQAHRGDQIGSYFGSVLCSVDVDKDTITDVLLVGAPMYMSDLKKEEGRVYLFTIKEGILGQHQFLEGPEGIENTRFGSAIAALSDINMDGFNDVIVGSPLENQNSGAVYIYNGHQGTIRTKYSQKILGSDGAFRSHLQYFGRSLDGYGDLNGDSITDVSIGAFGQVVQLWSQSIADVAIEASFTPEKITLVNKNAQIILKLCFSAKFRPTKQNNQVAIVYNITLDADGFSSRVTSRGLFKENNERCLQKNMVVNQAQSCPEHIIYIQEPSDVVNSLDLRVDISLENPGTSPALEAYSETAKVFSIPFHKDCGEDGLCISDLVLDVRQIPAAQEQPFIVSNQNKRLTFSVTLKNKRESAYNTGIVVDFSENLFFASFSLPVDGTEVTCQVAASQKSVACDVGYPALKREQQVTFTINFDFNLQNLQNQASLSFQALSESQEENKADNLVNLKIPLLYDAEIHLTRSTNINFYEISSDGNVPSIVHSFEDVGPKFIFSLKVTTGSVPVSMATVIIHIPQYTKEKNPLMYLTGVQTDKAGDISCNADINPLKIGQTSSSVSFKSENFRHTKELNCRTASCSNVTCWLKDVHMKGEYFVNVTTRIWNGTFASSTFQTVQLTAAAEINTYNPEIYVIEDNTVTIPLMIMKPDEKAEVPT

B1: Vatelizumab (antibody, V domains shown)
VH: QVQLQESGPGLVKPSETLSLTCTVSGFSLTNYGIHWIRQPPGKGLEWLGVIWARGFTNYNSALMSRLTISKDNSKNQVSLKLSSVTAADTAVYYCARANDGVYYAMDYWGQGTLVTVSS
VL: DFVMTQSPAFLSVTPGEKVTITCSAQSSVNYIHWYQQKPDQAPKKLIYDTSKLASGVPSRFSGSGSGTDYTFTISSLEAEDAATYYCQQWTTNPLTFGQGTKVEIK
B2: Chimeric mouse antibody FS002-A153 (antibody, human IgG1, kappa, V domains shown)
VH: QVQLQQSGAELVRPGASVTLSCKASGYTFTDYEMHWVKQTPVHGLEWIGTIDPETGGTTYNQKFNDKATLTADKSSSTAYMDLRSLTSEDSAVYYCSRSGYYVSSYESYAMDYWGQGTSVTVSS
VL: DIVMTQSPSSLTVTAGEKVTMSCKSSQSLLNSGNQKNYLTWYQQKPGQPPKLLIYGASTRESGVPDRFTGSGSGTDFTLTISSVQAEDLAVYYCQNDYSYPFTFGSGTKLEIKR
notes: Chimeric
B3: Chimeric mouse antibody FS002-A208 (antibody, human IgG1, kappa, V domains shown)
VH: B2 VH with M34I, T50A, T59N, S105N
VL: DIVMTQSQKFMSTSVGDRVSVTCKASQNVGTNVAWYQQKPGQSPKTLIYSASYRFSGVPDRFTGSGSGTDFTLTINNVQSEDLADYFCQQYNIYPLSFGAGTKLELKR
notes: Chimeric
B4: Chimeric mouse antibody FS002-A226 (antibody, human IgG1, kappa, V domains shown)
VH: B2 VH with V2L, M34I, T50A, T59N, S105N
VL: DIKITQSPSSMYASLGERVTITCKASQDIKSYLSWYQQKPGSSPRLLIYDTSNLASGVPVRFSGRGSGTSYSLTISRMEAEDAATYYCQQWSSYPFTFGSGTKLEIKR
notes: Chimeric
B5: Humanized antibody FS002-A103-H4L3 (antibody, human IgG1, kappa, V domains shown)
VH: QVQLVQSGAEVKKPGASVKVSCKASGYTFTDYEMHWVRQAPGQGLEWMGVIDPETGGTTYNQKFQGRVTLTADTSISTAYMELSRLRSDDTAVYYCSRSGYYVSSYESYAMDYWGQGTTVTVSS
VL: EIVMTQSPPTMSMSPGERVTLSCKASENVGTYVSWYQQKPGQAPRLLIYGASTRESGVPARFSGSGSGTDFTLTISSLQPEDFAVYYCQNDYSYPFTFGGGTKLEIKR
notes: Humanized IgG1 kappa
B6: Humanized antibody FS002-A103-H4L4 (antibody, human IgG1, kappa, V domains shown)
VH: B5 VH
VL: B5 VL with M11L, M13L, K24R, V58I
notes: Humanized IgG1 kappa
B7: Humanized antibody FS002-A226-H5L3 (antibody, human IgG1, kappa, V domains shown)
VH: B5 VH with M34I, V50A, T59N, N61A, L70M, S105N
VL: DIQITQSPSSMSASVGDRVTITCKASQDIKSYLSWYQQKPGKAPKLLIYDTSNLASGVPSRFSGSGSGTDYTLTISSLQPEDFATYYCQQWSSYPFTFGGGTKLEIKR
notes: Humanized IgG1 kappa
B8: Humanized antibody FS002-A226-H5L4 (antibody, human IgG1, kappa, V domains shown)
VH: B5 VH with M34I, V50A, T59N, N61A, L70M, S105N
VL: B7 VL with I4L, M11L, K24R, Y71F
notes: Humanized IgG1 kappa
B9: Humanized antibody FS002-A103-H4L2 (antibody, human IgG1, kappa, V domains shown)
VH: B5 VH
VL: B5 VL with P9K, A60D
notes: Humanized IgG1 kappa
B10: FS002-A226-H3L4-vcMMAE (antibody, human IgG1, kappa, V domains shown)
VH: B5 VH with V2L, M34I, M48I, V50A, T59N, Q65N, G66D, S105N
VL: B7 VL with I4L, M11L, K24R, Y71F
modifications: vc-MMAE, attachment residues not stated; vc-MMAE (mc-vc-PAB-MMAE) conjugated after TCEP reduction, DAR 3.8 per antibody; attachment residues not stated
B11: FS002-A153-H5L5-vcMMAE (antibody, human IgG1, kappa, V domains shown)
VH: B5 VH with V50T, N61A, L70M, S97A
VL: EIVMTQSPPTLSLSPGERVTMSCRSSQSLLNSGNQKNYLTWYQQKPGQAPRLLIYGASTRESGVPARFSGSGSGTDFTLTISSLQPEDFAVYYCQNDYSYPFTFGGGTKLEIKR
modifications: vc-MMAE, attachment residues not stated; vc-MMAE (mc-vc-PAB-MMAE) conjugated after TCEP reduction, DAR 4.0 per antibody; attachment residues not stated
B12: FS002-A208-H4L4-vcMMAE (antibody, human IgG1, kappa, V domains shown)
VH: B5 VH with M34I, M48I, V50A, T59N, S105N
VL: DIQMTQSPSSLSASVGDRVTITCRASQNVGTNVAWYQQKPEKAPKSLIYSASYRFSGVPSRFSGSGSGTDFTLTISSLQPEDFATYYCQQYNIYPLSFGGGTKLELKR
modifications: vc-MMAE, attachment residues not stated; vc-MMAE (mc-vc-PAB-MMAE) conjugated after TCEP reduction, DAR 4.1 per antibody; attachment residues not stated
B13: FS002-A103-H4L2-vcMMAE (antibody, human IgG1, kappa, V domains shown)
VH: B5 VH
VL: B5 VL with P9K, A60D
modifications: vc-MMAE, attachment residues not stated; vc-MMAE (mc-vc-PAB-MMAE) conjugated after TCEP reduction, DAR 3.5 per antibody; attachment residues not stated
B14: FS002-A103-H4L4-vcMMAE (antibody, human IgG1, kappa, V domains shown)
VH: B5 VH
VL: B5 VL with M11L, M13L, K24R, V58I
modifications: vc-MMAE, attachment residues not stated; vc-MMAE (mc-vc-PAB-MMAE) conjugated after TCEP reduction, DAR 3.7 per antibody; attachment residues not stated
B15: FS002-A103-H4L3-vcMMAE (antibody, human IgG1, kappa, V domains shown)
VH: B5 VH
VL: B5 VL
modifications: vc-MMAE, attachment residues not stated; vc-MMAE (mc-vc-PAB-MMAE) conjugated after TCEP reduction, DAR 3.5 per antibody; attachment residues not stated
B16: FS002-A153-H3L3-vcMMAE (antibody, human IgG1, kappa, V domains shown)
VH: B5 VH with V20L, M48I, V50T
VL: DIVMTQSPDSLAVSLGERATINCKSSQSLLNSGNQKNYLTWYQQKPGQPPKLLIYGASTRESGVPDRFSGSGSGTDFTLTISSLQAEDVAVYYCQNDYSYPFTFGGGTKLEIKR
modifications: vc-MMAE, attachment residues not stated; vc-MMAE (mc-vc-PAB-MMAE) conjugated after TCEP reduction, DAR 3.8 per antibody; attachment residues not stated
B17: FS002-A208-H5L4-vcMMAE (antibody, human IgG1, kappa, V domains shown)
VH: B5 VH with M34I, V50A, T59N, N61A, L70M, S105N
VL: B12 VL
modifications: vc-MMAE, attachment residues not stated; vc-MMAE (mc-vc-PAB-MMAE) conjugated after TCEP reduction, DAR 4.0 per antibody; attachment residues not stated
B18: FS002-A226-H5L4-vcMMAE (antibody, human IgG1, kappa, V domains shown)
VH: B5 VH with M34I, V50A, T59N, N61A, L70M, S105N
VL: B7 VL with I4L, M11L, K24R, Y71F
modifications: vc-MMAE, attachment residues not stated; vc-MMAE (mc-vc-PAB-MMAE) conjugated after TCEP reduction, DAR 3.8 per antibody; attachment residues not stated

Residue numbers refer to the chain shown, from its start.

The first test addresses T1, ITGA2 protein on the surface of human …. Description: flow cytometry on HuCCT1 cells.
Broadly, the EC50 is the concentration needed to bring the measured effect to its halfway point. A low value points to an effect from little substance. B1 came in with an EC50 of 0.78 nM.
On the same count and under the same terms, the same measure for B2: 0.333 nM; for B3: 0.76 nM; for B4: 0.58 nM.
B5 returned a concentration giving a half-maximal response (EC50) of 0.08 nM.
B6 displayed a concentration giving a half-maximal response (EC50) of 0.3 nM.
As for B7, the 50% effective concentration (EC50) was 0.58 nM.
B8: the half-maximal effective concentration (EC50) amounted to 0.647 nM.
On the same count and under the same terms, the same measure for B9: 0.127 nM.

In a further test the target is T2, ITGA2-His. The test can be described thus: ELISA, plate coated with 2 ug/mL ITGA2-His, anti-human IgG-Fc-HRP detection. On the technique in general: In an ELISA, binding on a coated surface is turned into a signal by an enzyme label.
In turn, B1 yielded an EC50 of 0.008 nM.
B2: the response was half-maximal at 0.008 nM (EC50).
Still for that read-out and setting: for B3 the value was 0.02 nM; for B4, 0.018 nM; for B5, 0.006 nM.
Consider B6, for which the half-maximal effective concentration (EC50) is 0.01 nM.
The same measure, in the same setting: for B7 the value was 0.023 nM; for B8, 0.022 nM.
The same measure, in the same setting: for B9 the value was 0.006 nM.

Another test concerns the target T1, ITGA2 protein on the surface of human …. The test can be described thus: cell-based or functional assay.
Consider B10, for which the “A431 cell killing IC50” value came to 0.063 nM.
As for B11, the “A431 cell killing IC50” value is 0.073 nM.
As to B12, the “A431 cell killing IC50” value turned out to be 0.051 nM.
On the same count and under the same terms, for B13 the value was 0.061 nM; for B14, 0.052 nM; for B15, 0.07 nM.
For B16, the “A431 cell killing IC50” value was 0.088 nM.
Still for that read-out and setting: for B17 the value was 0.083 nM.
For the molecule B18, the “A431 cell killing IC50” value was determined as 0.049 nM.

For the origin of these results see patent publication EP4722245A1, “ANTIBODY TARGETING ITGA2, ANTIBODY DRUG CONJUGATE THEREOF, AND USE” (Foreseen Technology (Beijing) Co., Ltd., priority 2023, dated 2024).
